From publication PMC12078605
“And” between values parts separate entries of the source, which are not always exact repeats. Equal entries are not always repeated.

Target: Shiga toxin 2a B-subunit (StxB2a) (E. coli (endogenous in STEC/EHEC strains TS18/08, LB226692, HUSEC003, HUSEC004, HUSEC008, HUSEC018))
Assay: native gel or EMSA

## Shiga toxin 2a B-subunit (StxB2a) (natural protein)
  stoichiometry N: 2 and 3 and 5
